First the molecules themselves.
B1: R1-32 (antibody, V domains shown)
VH: EVQLVESGAEVKKPGSSVKVSCKASGGTFSSYAISWVRQAPGQGLEWMGGIIPILGIANYAQKFQGRVTITADKSTSTAYMELSSLRSEDTAVYYCARENGYSGYGAAANFDLWGRGTLVTVSS
VL: QSVLTQPPSVSGAPGQRVTISCTGSSSNIGAGYDVHWYQQLPGTAPKLLIYGNSNRPSGVPDRFSGSKSGTSASLAITGLQAEDEADYYCQSYDSSLSGSVFGGGTKLTVL
B2: C092-germline HCDR1 (antibody, V domains shown)
VH: QVQLVQSGAEVKKPGSSVKVSCKASGGTFSSYAISWVRQAPGQGLEWMGRIIPILGTANYAQNFQGRVMMTADKSTSTAYMELSSLRSEDTAVYYCARDSGYSGYGSTYYMDVWGKGTTVTVSS
VL: B1 VL with S26N, T44A, S54N, G70D, A82V, G99D, G104S, L108V
B3: C807 (antibody, V domains shown)
VH: QVQLVQSGAEAKKPGSSVKVSCKASGGTFKSYIINWVRQAPGQGLEWMGEIIPIFGTANYAQKFQGRVTSTADESTSTAYMELSSLKSEDTAVYYCARGRGYSGYGASYYFDYWGQGTLVTVSS
VL: B1 VL with S26N, G52A, S96G
B4: R1-32-AAM (R1-32-artificial-affinity-matured) (antibody, V domains shown)
VH: B1 VH with A33F, N59D, Q62E, A109Y
VL: B1 VL with S26D, G70D, G99D
B5: BD56-104 (antibody, V domains shown)
VH: QVQLVQSGAEVKTPGSSVKVSCKASGGTFGSHSITWVRQAPGQGLEWMGRVIPILGIPDFAESFQGRVAITADRSTSTAHMELSRLRSEDTAVYYCARDVGYSGSGSSNYFDSWGQGTLVTVSS
VL: B1 VL with S26N, Q39R, G52V, S54N, K68R, T71A, D87E, V101I
B6: BD56-597 (antibody, V domains shown)
VH: QVQLVQSGAEVKKPGSSVKVSCKASGGTFSTYPISWVRQAPGQGVEWMGAIIPILGTTDYAQIFQGRVTITADKSTSTAYMELSSLRPEDTAVYYCARERGYSGYGAAYYFDSWGQGTLVTVSS
VL: B1 VL with S26D, G52V, S54I, G70A, S100V
B7: BD56-104+D59NH+E62QH (antibody, V domains shown)
VH: B5 VH with D59N, E62Q
VL: B1 VL with S26N, Q39R, G52V, S54N, K68R, T71A, D87E, V101I
B8: C092 (antibody, V domains shown)
VH: B2 VH with T28S, S30T, S31N, Y32H, A33F
VL: B1 VL with S26N, T44A, S54N, G70D, A82V, G99D, G104S, L108V

Changes are numbered by the printed parent chain.

One assay concerns the target SARS-CoV-2 Omicron BA.4/5 RBD (SARS-CoV-2 Omicron BA.4/5, L452R). As to the kind of experiment: BLI. In general terms: Biolayer interferometry detects binding as a change in optical thickness at a sensor tip.
By Kd is commonly meant a measure of binding affinity in units of concentration. Read a high Kd as a looser complex. On to B1, for which the Kd was over 55 nM.
B2: the “fold reduction in binding relative to C092” value is about 10 fold.
In the case of B3, the dissociation constant Kd was under 2.1 nM.
As for B4, the “fold enhancement of affinity relative to R1-32” value was about 100 fold.
B5 displayed a Kd of under 2.1 nM.
With B6, the Kd is under 2.1 nM.
As for B7, the “fold reduction in binding relative to BD56-104” value was about 100 fold.
On to B8, for which the Kd is under 2.1 nM.

The target of another assay is SARS-CoV-2 Omicron BA.2.12.1 RBD (SARS-CoV-2 Omicron BA.2.12.1, L452Q). As to the kind of experiment: BLI.
B1: the equilibrium dissociation constant (Kd) was over 55 nM.
For B3, the dissociation constant (Kd) is under 2.1 nM.
Take B5: the Kd is under 2.1 nM.
The same measure, in the same setting: for B6 the value was under 2.1 nM; for B8, under 2.1 nM.

The next assay addresses SARS-CoV-2 Omicron BA.2.13 RBD (SARS-CoV-2 Omicron BA.2.13, L452M). As to the kind of experiment: BLI.
The molecule B1 displayed a Kd of over 55 nM.
Still for that read-out and setting: for B3 the value was under 2.1 nM.
For B5, the Kd is under 2.1 nM.
Same read-out and setting: for B6 the value was under 2.1 nM; for B8, under 2.1 nM.

A further assay concerns the target SARS-CoV-2 Omicron EG.5.1 RBD (SARS-CoV-2 Omicron EG.5.1, F490S). Briefly: BLI.
For the molecule B3, the Kd was under 4.5 nM.
On the same count and under the same terms, then B5, with under 4.5 nM; and B6, with under 4.5 nM; and B8, with under 4.5 nM.

The target of a further assay is SARS-CoV-2 Gamma (P.1) RBD (SARS-CoV-2 Gamma (P.1), strain). As to the kind of experiment: BLI.
B3 returned a Kd of under 0.3 nM.
Same read-out and setting: then B5, with under 0.3 nM.
B6 yielded an equilibrium dissociation constant (Kd) of under 0.3 nM.
On the same count and under the same terms, for B8 the value was under 0.3 nM.

The target in another assay is SARS-CoV-2 Omicron BF.7 RBD (SARS-CoV-2 Omicron BF.7, L452R). As to the kind of experiment: BLI.
For B1, the Kd is over 55 nM.
Turning to B3, the dissociation constant Kd is under 2.1 nM.
For B4, the “fold enhancement of affinity relative to R1-32” value was about 100 fold.
Turning to B5, the Kd was under 2.1 nM.
Same read-out and setting: for B6 the value was under 2.1 nM; for B8, under 2.1 nM.

A further assay addresses SARS-CoV-2 Kappa (B.1.617.1) RBD (SARS-CoV-2 Kappa (B.1.617.1), L452R). As to the kind of experiment: BLI.
In turn, B1 registered a Kd of over 55 nM.
In the case of B2, the “fold reduction in binding relative to C092” value was about 10 fold.
Take B3: the Kd is under 2.1 nM.
On to B4, for which the “fold enhancement of affinity relative to R1-32” value is about 100 fold.
With B5, the Kd was under 2.1 nM.
On the same count and under the same terms, then B6, with under 2.1 nM; and B8, with under 2.1 nM.

A further assay addresses SARS-CoV-2 Delta (B.1.617.2) RBD (SARS-CoV-2 Delta (B.1.617.2), L452R). As to the kind of experiment: BLI.
As for B1, the Kd was over 55 nM.
Take B2: the “fold reduction in binding relative to C092” value is about 10 fold.
B3 came in with a dissociation constant (Kd) of under 2.1 nM.
Regarding B4, the “fold enhancement of affinity relative to R1-32” value was about 100 fold.
In turn, B5 had a Kd of under 2.1 nM.
B6 showed a Kd of under 2.1 nM.
Same read-out and setting: for B8 the value was under 2.1 nM.

The next assay concerns the target SARS-CoV-2 Omicron XBB.1.5 RBD (SARS-CoV-2 Omicron XBB.1.5, F490S). As to the kind of experiment: BLI.
The molecule B3 displayed a Kd of under 4.5 nM.
Molecule B5 displayed a Kd of under 4.5 nM.
On the same count and under the same terms, for B6 the value was under 4.5 nM; for B8, under 4.5 nM.

The next assay deals with SARS-CoV-2 Omicron BQ.1.1 RBD (SARS-CoV-2 Omicron BQ.1.1, R346T | L452R). As to the kind of experiment: BLI.
B1: the Kd was over 55 nM.
B3 showed a Kd of under 2.1 nM.
Consider B4, for which the “fold enhancement of affinity relative to R1-32” value is about 100 fold.
As to B5, the Kd is under 2.1 nM.
Consider B6, for which the Kd is under 2.1 nM.
Consider B8, for which the Kd is under 2.1 nM.

Another assay concerns the target SARS-CoV-2 Omicron BA.2.75 RBD (SARS-CoV-2 Omicron BA.2.75, strain). Briefly: BLI.
B3 registered a Kd of under 0.3 nM.
Take B5: the Kd was under 0.3 nM.
B6: the Kd was under 0.3 nM.
B8 showed a Kd of under 0.3 nM.

A further assay addresses SARS-CoV-2 Omicron BA.2 RBD (SARS-CoV-2 Omicron BA.2, strain). As to the kind of experiment: BLI.
With B3, the Kd was under 0.3 nM.
B5 came in with a Kd of under 0.3 nM.
Still for that read-out and setting: for B6 the value was under 0.3 nM; for B8, under 0.3 nM.

Another assay deals with SARS-CoV-2 Omicron XBB RBD (SARS-CoV-2 Omicron XBB, F490S). Briefly: BLI.
For B3, the Kd is under 4.5 nM.
Molecule B5 registered a Kd of under 4.5 nM.
Still for that read-out and setting: then B6, with under 4.5 nM; and B8, with under 4.5 nM.

A further assay has as its target SARS-CoV-2 Alpha (B.1.1.7) RBD (SARS-CoV-2 Alpha (B.1.1.7), strain). As to the kind of experiment: BLI.
Regarding B3, the dissociation constant (Kd) was under 0.3 nM.
On the same count and under the same terms, then B5, with under 0.3 nM; and B6, with under 0.3 nM; and B8, with under 0.3 nM.

The target in another assay is SARS-CoV-2 Omicron BA.3 RBD (SARS-CoV-2 Omicron BA.3, strain). As to the kind of experiment: BLI.
Turning to B3, the Kd was under 0.3 nM.
The same measure, in the same setting: for B5 the value was under 0.3 nM; for B6, under 0.3 nM; for B8, under 0.3 nM.

The next assay addresses SARS-CoV-2 Beta (B.1.351) RBD (SARS-CoV-2 Beta (B.1.351), strain). Briefly: BLI.
B3: the Kd is under 0.3 nM.
The same measure, in the same setting: then B5, with under 0.3 nM; and B6, with under 0.3 nM.
The molecule B8 displayed a Kd of under 0.3 nM.

A further assay addresses SARS-CoV-2 Omicron BA.1 RBD (SARS-CoV-2 Omicron BA.1, strain). Briefly: BLI.
B3: the Kd is under 0.3 nM.
B5 displayed a Kd of under 0.3 nM.
With B6, the Kd was under 0.3 nM.
Same read-out and setting: for B8 the value was under 0.3 nM.

The target in another assay is SARS-CoV-2 Omicron BA.1.1 RBD (SARS-CoV-2 Omicron BA.1.1, strain). As to the kind of experiment: BLI.
Regarding B3, the Kd is under 0.3 nM.
Molecule B5 yielded a Kd of under 0.3 nM.
B6 registered a Kd of under 0.3 nM.
For the molecule B8, the dissociation constant (Kd) was under 0.3 nM.

A further assay concerns the target SARS-CoV-2 Omicron EG.5 RBD (SARS-CoV-2 Omicron EG.5, R346T | F490S). Briefly: BLI.
Consider B3, for which the Kd is under 4.5 nM.
The same measure, in the same setting: for B5 the value was under 4.5 nM; for B6, under 4.5 nM; for B8, under 4.5 nM.

Another assay concerns the target SARS-CoV-2 WT S-trimer (SARS-CoV-2 ancestral (WT), UniProt P0DTC2, deletion of amino acids PRRA (681-684)). As to the kind of experiment: BLI.
Consider B3, for which the binding result is reported as “binds”.
The same measure, in the same setting: for B5 the value was “binds”.
On to B6, for which the binding result is given as “binds”.
As to B8, the binding result is listed as “binds”.

Values taken from paper doi:10.64898/2025.12.19.695307 (bioRxiv, 2025).
